The text below walks through data of article PMC3072150 (Biochemistry, 2009).

Data set [1] deals with DnaC protein (hexamer assembled on DnaB) in the binary DnaB–DnaC complex (Escherichia coli, UniProt P0AEF0). As to the kind of experiment: fluorescence titration. In kind it is binding.
A further data set deals with DnaB helicase (Escherichia coli, UniProt P0ACB0 1-471). As to the kind of experiment: fluorescence titration.
In data set [2] the target is DnaB helicase;DnaC protein (Escherichia coli;Escherichia coli, UniProt P0ACB0;P0AEF0 1-471;1-245, |). As to the kind of experiment: fluorescence titration and sedimentation velocity of cofactor.
DnaB helicase;DnaC protein, sequence (P0ACB0 whole entry, chain 1 of 2): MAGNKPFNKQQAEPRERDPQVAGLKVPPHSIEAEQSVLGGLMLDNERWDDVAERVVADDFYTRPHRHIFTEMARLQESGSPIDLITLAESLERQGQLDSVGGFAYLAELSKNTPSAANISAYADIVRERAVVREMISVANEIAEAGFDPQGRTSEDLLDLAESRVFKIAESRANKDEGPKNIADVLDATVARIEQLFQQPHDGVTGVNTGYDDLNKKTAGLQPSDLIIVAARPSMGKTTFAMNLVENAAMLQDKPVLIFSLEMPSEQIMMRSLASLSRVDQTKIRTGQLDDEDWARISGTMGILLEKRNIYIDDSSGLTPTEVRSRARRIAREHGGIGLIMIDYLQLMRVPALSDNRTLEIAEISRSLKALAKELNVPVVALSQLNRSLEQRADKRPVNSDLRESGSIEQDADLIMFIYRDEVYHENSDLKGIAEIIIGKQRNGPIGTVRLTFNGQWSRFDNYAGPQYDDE
DnaB helicase;DnaC protein, sequence (P0AEF0 whole entry, chain 2 of 2): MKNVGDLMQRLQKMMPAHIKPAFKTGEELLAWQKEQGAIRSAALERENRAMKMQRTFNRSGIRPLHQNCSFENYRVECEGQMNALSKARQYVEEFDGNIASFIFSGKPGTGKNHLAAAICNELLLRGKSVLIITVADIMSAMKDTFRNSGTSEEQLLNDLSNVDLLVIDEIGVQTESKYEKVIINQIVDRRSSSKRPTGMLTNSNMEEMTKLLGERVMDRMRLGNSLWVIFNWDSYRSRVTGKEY

DnaC protein (hexamer assembled on DnaB) in the binary DnaB–DnaC complex, sequence (P0AEF0 whole entry): as the sequence (P0AEF0 whole entry, chain 2 of 2) above
DnaC protein (hexamer assembled on DnaB) in the binary DnaB–DnaC complex, sequence (P0ACB0 2-471 partner): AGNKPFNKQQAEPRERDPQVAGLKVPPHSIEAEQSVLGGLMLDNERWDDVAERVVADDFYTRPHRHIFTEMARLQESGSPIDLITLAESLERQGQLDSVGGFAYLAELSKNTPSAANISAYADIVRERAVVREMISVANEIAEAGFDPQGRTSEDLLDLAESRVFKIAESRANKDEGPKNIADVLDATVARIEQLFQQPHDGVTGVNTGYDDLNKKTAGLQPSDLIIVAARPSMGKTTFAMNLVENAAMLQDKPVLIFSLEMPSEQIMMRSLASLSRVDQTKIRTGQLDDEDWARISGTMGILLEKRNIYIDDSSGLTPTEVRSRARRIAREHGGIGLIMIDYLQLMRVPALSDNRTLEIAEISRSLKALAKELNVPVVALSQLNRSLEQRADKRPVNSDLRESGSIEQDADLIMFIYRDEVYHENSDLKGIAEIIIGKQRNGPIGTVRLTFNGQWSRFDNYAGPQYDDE
DnaB helicase, sequence (P0ACB0 whole entry): as the sequence (P0ACB0 whole entry, chain 1 of 2) above

In turn, `CNc1ccccc1C(=O)O[C@H]1[C@@H](O)[C@H](n2cnc3c(N)ncnc32)O[C@@H]1CO[P@@](=O)(O)O[P@](=O)(O)OP(=O)(O)O` [MANT-ATP, 3′-O-(N-methylanthraniloyl)adenosine 5′-triphosphate] gave a Kd in data set [1] of 4.17 µM. That is a single-digit micromolar value. Regarding AAAAAAAAAAAAAAAAAAAA (ssDNA) [dA(pdA)19 (ssDNA 20-mer)], the binding result (with DnaB helicase; in data set [2]) was “binds” each time.

In general, Kd refers to a measure of binding affinity in units of concentration.
